Results published in US20260234700, “MUTANT CAS12J ENDONUCLEASES” (University of Copenhagen, published 2026).

Biological target: T1, CasΦ3 (Cas12j-3) (Biggiephage)
T1 chain: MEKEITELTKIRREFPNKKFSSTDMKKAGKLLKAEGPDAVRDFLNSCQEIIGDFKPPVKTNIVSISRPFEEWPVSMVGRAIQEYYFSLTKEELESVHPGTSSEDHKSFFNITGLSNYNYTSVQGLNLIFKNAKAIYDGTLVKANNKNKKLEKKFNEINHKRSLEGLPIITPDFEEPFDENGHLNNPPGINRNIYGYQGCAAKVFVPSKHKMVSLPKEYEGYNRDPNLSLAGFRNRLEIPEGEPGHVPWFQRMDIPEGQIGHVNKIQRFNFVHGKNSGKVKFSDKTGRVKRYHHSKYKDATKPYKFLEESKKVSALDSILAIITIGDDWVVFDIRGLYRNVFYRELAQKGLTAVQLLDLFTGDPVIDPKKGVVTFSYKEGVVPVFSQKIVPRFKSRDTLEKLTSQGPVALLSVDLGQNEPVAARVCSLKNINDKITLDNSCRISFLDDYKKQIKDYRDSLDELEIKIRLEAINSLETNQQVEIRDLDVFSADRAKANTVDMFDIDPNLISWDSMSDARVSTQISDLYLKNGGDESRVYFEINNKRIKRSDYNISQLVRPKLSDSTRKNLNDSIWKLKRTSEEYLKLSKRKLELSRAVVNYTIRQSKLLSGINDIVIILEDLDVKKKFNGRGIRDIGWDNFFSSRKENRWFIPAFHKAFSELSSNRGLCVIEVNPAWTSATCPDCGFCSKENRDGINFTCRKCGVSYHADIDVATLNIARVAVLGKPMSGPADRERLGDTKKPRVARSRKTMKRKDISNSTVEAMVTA
Assay: structure; cryo-EM 2.7 Å R-loop product complex; PAM TTC; Ni2+
Details: tags: C-terminal His6
Description: For the preparation of the Cryo-EM sample, Ni²⁺ was used as a catalytic ion instead of Mg²⁺ due to the higher yield obtained with this metal. CasΦ3 RNP was prepared as described before. 25 nmol of RNP and 37 nmol of unlabeled dsDNA substrate were incubated in 25 ml of MonoQ A buffer (20 mM HEPES pH7.5, 200 mM KCl, 1 mM NiSO₄, 0.5 mM TCEP) for 2 h at 20° C. to allow DNA cleavage. The product of the reaction was loaded in a MonoQ column equilibrated with MonoQ A buffer, and CasΦ3 R-loop complex was separated from the RNP and the unbound DNA substrate by a salt gradient elution using MonoQ B buffer (20 mM HEPES pH7.5, 2 M KCl, 1 mM NiSO₄, 0.5 mM TCEP). CasΦ3 R-loop eluted at 16-20% of MonoQ buffer B […]. […] 2.5 μL of freshly purified CasΦ3 R-loop complex (Absorbance_{260 nm} of ~1.6) was applied to UltrAuFoil 300 mesh R0.6/1.0 holey grids (Quantifoil), glow-discharged for 60 s at 10 mA (Leica EM ACE200), and plunge-frozen in liquid ethane (pre-cooled with liquid nitrogen) using a Vitrobot Mark IV (FEI, Thermo Fisher Scientific) using the next conditions: blotting time 3 s, 100% humidity and 4° C.
We reconstituted and characterized a functional CasΦ3-crRNA complex (FIG. 5) and determined the structure of the enzyme after severing a target dsDNA by cryo-EM (FIG. 1). […]

B1: CasΦ3 crRNA ; target dsDNA with TTC PAM (NT/T strands) (ssRNA ; dsDNA)
RNA: UAUUGAUUGCCCAGUACGCUGGGACAGCUGGUAAUGGGAUACCUU
DNA 1: GTAATTCAGCTGGTAATGGGATACCTTGTGCTACAGC
DNA 2: GCTGTAGCACAAGGTATCCCATTACCAGCTGAATTAC
- binding result: binds
